B1: anti-IL-18BP antibody variant BP-04.04 (antibody, V domains shown)
VH: QVQLVQSGAEVKKPGASVKVSCKASGYTFTDYDMHWVRQAPGQGLEWMGIISTYYGDVSYAQKKQGRVTMTRDKSTSTVYMELSSLRSEDTAVYYCARSGTYNYGTRESHPLDYWGQGTLVTVSS
VL: DIQMTQSPSSVSASVGDRVTITCRASDNVYSNLAWYQQKPGKAPKLLIYGAISLADGVPSRFSGSGSGTDFTLTISSLQPEDFATYYCQHFWGNPYTFGQGTKLEIK
B2: anti-IL-18BP antibody variant BP-04.12 (antibody, V domains shown)
VH: B1 VH with I51Y, D57V, N103Y, P111A
VL: B1 VL
B3: anti-IL-18BP antibody variant BP-04.19 (antibody, V domains shown)
VH: B1 VH with D57V, K64F, N103Y, P111A, L112F
VL: B1 VL
B4: anti-IL-18BP antibody variant BP-04.21 (antibody, V domains shown)
VH: B1 VH with D57V, K64F, P111A
VL: B1 VL
B5: anti-IL-18BP antibody variant BP-04.20 (antibody, V domains shown)
VH: B1 VH with D57V, K64F, N103Y
VL: B1 VL
B6: anti-IL-18BP antibody variant BP-04.27 (antibody, V domains shown)
VH: B1 VH with K64F, N103Y, P111A, L112F
VL: B1 VL
B7: anti-IL-18BP antibody variant BP-04.17 (antibody, V domains shown)
VH: B1 VH with N103Y
VL: B1 VL
B8: anti-IL-18BP antibody variant BP-04.23 (antibody, V domains shown)
VH: B1 VH with I51Y, K64F, N103Y, P111A, L112F
VL: B1 VL
B9: anti-IL-18BP antibody variant BP-04.14 (antibody, V domains shown)
VH: B1 VH with K64F, P111A, L112F
VL: B1 VL
B10: anti-IL-18BP antibody variant BP-04.26 (antibody, V domains shown)
VH: B1 VH with I51Y, D57V, K64F, N103Y, P111A
VL: B1 VL
B11: anti-IL-18BP antibody variant BP-04.18 (antibody, V domains shown)
VH: B1 VH with P111A
VL: B1 VL
B12: anti-IL-18BP antibody variant BP-04.22 (antibody, V domains shown)
VH: B1 VH with D57V, N103Y, P111A
VL: B1 VL
B13: anti-IL-18BP antibody variant BP-04.11 (antibody, V domains shown)
VH: B1 VH with I51Y, D57V, K64F, P111A
VL: B1 VL
B14: anti-IL-18BP antibody variant BP-04.32 (antibody, V domains shown)
VH: B1 VH with I51Y, K64F, N103Y, P111A
VL: B1 VL
B15: anti-IL-18BP antibody variant BP-04.06 (antibody, V domains shown)
VH: B1 VH with D57V, N103Y
VL: B1 VL
B16: anti-IL-18BP antibody variant BP-04.31 (antibody, V domains shown)
VH: B1 VH with D57V, K64F, N103Y, P111A
VL: B1 VL
B17: anti-IL-18BP antibody variant BP-04.13 (antibody, V domains shown)
VH: B1 VH with K64F, N103Y, L112F
VL: B1 VL
B18: anti-IL-18BP antibody variant BP-04.02 (antibody, V domains shown)
VH: B1 VH with M34L, K64F, T101M, N103Y, P111A
VL: B1 VL
B19: anti-IL-18BP antibody variant BP-04.16 (antibody, V domains shown)
VH: B1 VH with N103Y, P111A, L112F
VL: B1 VL
B20: anti-IL-18BP antibody variant BP-04.10 (antibody, V domains shown)
VH: B1 VH with I51Y, D57V, K64F, N103Y
VL: B1 VL
B21: anti-IL-18BP antibody variant BP-04.24 (antibody, V domains shown)
VH: B1 VH with I51Y, K64F, N103Y
VL: B1 VL
B22: anti-IL-18BP antibody variant BP-04.05 (antibody, V domains shown)
VH: B1 VH with D57V, N103Y, P111A, L112F
VL: B1 VL
B23: anti-IL-18BP antibody variant BP-04.03 (antibody, V domains shown)
VH: B1 VH with K64F, D90N, N103Y, S109Q, P111A
VL: B1 VL
B24: anti-IL-18BP antibody variant BP-04.01 (antibody, V domains shown)
VH: QVQLVQSGAEVKKPGASVKVSCKASGYTFTDYDMWVRQAPGQGLEWMGIISTYYGDVSYAIKFQGRVTMTRDKSTSTVYMELSSLRSEDTAVYYCARSGTYYYGTRESALDYWGQGTLVTVSS
VL: B1 VL
B25: anti-IL-18BP antibody variant BP-04.30 (antibody, V domains shown)
VH: B1 VH with N103Y, P111A
VL: B1 VL

Residue numbers refer to the chain shown, from its start.

One assay addresses T1, Avi/His-HuIL18BPa (recombinant human IL-18BP isoform A with Avi and poly-His tags) (human, biotinylated with BirA on the Avi tag in some assays).
T1 chain: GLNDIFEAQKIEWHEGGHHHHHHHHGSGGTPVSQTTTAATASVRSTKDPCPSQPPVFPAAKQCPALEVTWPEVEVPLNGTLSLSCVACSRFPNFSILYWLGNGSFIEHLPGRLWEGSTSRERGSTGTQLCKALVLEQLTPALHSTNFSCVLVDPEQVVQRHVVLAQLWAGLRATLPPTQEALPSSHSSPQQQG
The assay can be described thus: cell-based or functional assay.
On to B1, for which the “EC50 of IFNγ release, human PBMCs” value was 18.6 nM.

Consider B2, for which the “EC50 of IFNγ release, human PBMCs” value came out at 31.9 nM.

For B3, the “EC50 of IFNγ release, human PBMCs” value is 3.1 nM.

With B4, the “EC50 of IFNγ release, human PBMCs” value worked out at 4.48 nM.

Take B5: the “EC50 of IFNγ release, human PBMCs” value turned out to be 4.06 nM.

In the case of B6, the “EC50 of IFNγ release, human PBMCs” value is 1.28 nM.

Consider B7, for which the “EC50 of IFNγ release, human PBMCs” value is 8.89 nM.

As to B8, the “EC50 of IFNγ release, human PBMCs” value worked out at 146 nM.

Consider B9, for which the “EC50 of IFNγ release, human PBMCs” value amounted to 543 nM.

As for B10, the “EC50 of IFNγ release, human PBMCs” value turned out to be 36.2 nM.

Regarding B11, the “EC50 of IFNγ release, human PBMCs” value was determined as 11.3 nM.

Turning to B12, the “EC50 of IFNγ release, human PBMCs” value is 7.71 nM.

Consider B13, for which the “EC50 of IFNγ release, human PBMCs” value was found to be 3.94 nM.

As to B14, the “EC50 of IFNγ release, human PBMCs” value is 0.838 nM.

In the case of B15, the “EC50 of IFNγ release, human PBMCs” value is 1.32 nM.

For the molecule B16, the “EC50 of IFNγ release, human PBMCs” value was 6.3 nM.

Regarding B17, the “EC50 of IFNγ release, human PBMCs” value was determined as 16.6 nM.

For the molecule B18, the “EC50 of IFNγ release, human PBMCs” value stood at 41.5 nM.

B19: the “EC50 of IFNγ release, human PBMCs” value was 3.34 nM.

On to B20, for which the “EC50 of IFNγ release, human PBMCs” value was 10.5 nM.

With B21, the “EC50 of IFNγ release, human PBMCs” value amounted to 4.84 nM.

Regarding B22, the “EC50 of IFNγ release, human PBMCs” value is 3.18 nM.

In the case of B23, the “EC50 of IFNγ release, human PBMCs” value stood at 10.5 nM.

A further assay deals with T2, Avi/HisMsIL18BPd (recombinant mouse IL-18BP with Avi and poly-His tags) (mouse, biotinylated with BirA on the Avi tag in some assays).
T2 chain: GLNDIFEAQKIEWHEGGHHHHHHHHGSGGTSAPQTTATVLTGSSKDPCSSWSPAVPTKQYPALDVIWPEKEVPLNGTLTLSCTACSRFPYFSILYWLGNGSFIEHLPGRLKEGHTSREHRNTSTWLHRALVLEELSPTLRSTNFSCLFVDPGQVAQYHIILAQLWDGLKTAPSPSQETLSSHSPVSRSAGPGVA
Nature of the assay: cell-based or functional assay.
As for B1, the “EC50 of IFNγ release, mouse splenocytes” value worked out at 31.8 nM.

With B2, the “EC50 of IFNγ release, mouse splenocytes” value was 0.865 nM.

For the molecule B3, the “EC50 of IFNγ release, mouse splenocytes” value turned out to be 21.6 nM.

As to B4, the “EC50 of IFNγ release, mouse splenocytes” value was found to be 595 nM.

Regarding B5, the “EC50 of IFNγ release, mouse splenocytes” value was determined as 28.7 nM.

Regarding B6, the “EC50 of IFNγ release, mouse splenocytes” value was 39.6 nM.

As for B7, the “EC50 of IFNγ release, mouse splenocytes” value stood at 14.6 nM.

As to B8, the “EC50 of IFNγ release, mouse splenocytes” value is 3.5 nM.

With B9, the “EC50 of IFNγ release, mouse splenocytes” value worked out at 21.2 nM.

Consider B10, for which the “EC50 of IFNγ release, mouse splenocytes” value came to 6.02 nM.

As to B11, the “EC50 of IFNγ release, mouse splenocytes” value was found to be 28.4 nM.

B12: the “EC50 of IFNγ release, mouse splenocytes” value was found to be 368 nM.

On to B24, for which the “EC50 of IFNγ release, mouse splenocytes” value was found to be 1.67 nM.

As to B13, the “EC50 of IFNγ release, mouse splenocytes” value turned out to be 3.61 nM.

Take B14: the “EC50 of IFNγ release, mouse splenocytes” value turned out to be 9.61 nM.

In the case of B15, the “EC50 of IFNγ release, mouse splenocytes” value came out at 67.6 nM.

Take B17: the “EC50 of IFNγ release, mouse splenocytes” value turned out to be 41.4 nM.

With B25, the “EC50 of IFNγ release, mouse splenocytes” value came to 7.43 nM.

B18: the “EC50 of IFNγ release, mouse splenocytes” value is 12.3 nM.

Consider B19, for which the “EC50 of IFNγ release, mouse splenocytes” value came out at 220 nM.

For B20, the “EC50 of IFNγ release, mouse splenocytes” value was found to be 501 nM.

Turning to B22, the “EC50 of IFNγ release, mouse splenocytes” value turned out to be 4.92 nM.

On to B23, for which the “EC50 of IFNγ release, mouse splenocytes” value stood at 0.881 nM.

The next assay concerns the target T3, His/Avi-CynoIL18BP (recombinant cynomolgus IL-18BP with His and Avi tags) (cynomolgus monkey).
T3 construct: also called cynomolgus IL-18BP-Avi-His
T3 chain: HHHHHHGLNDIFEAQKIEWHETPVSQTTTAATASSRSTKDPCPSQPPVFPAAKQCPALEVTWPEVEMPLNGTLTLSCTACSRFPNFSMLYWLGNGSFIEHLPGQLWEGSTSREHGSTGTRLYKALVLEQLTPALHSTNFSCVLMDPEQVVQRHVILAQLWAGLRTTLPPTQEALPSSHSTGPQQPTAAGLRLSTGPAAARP
Nature of the assay: SPR Biacore T200, IgG captured on Protein A/G.
B14: the dissociation constant Kd came to 59 nM, the koff was 0.02 s⁻¹ and the kon was found to be 340000 M⁻¹ s⁻¹.

Regarding B21, the Kd stood at 29 nM, the koff was found to be 0.0059 s⁻¹ and the kon came out at 200000 M⁻¹ s⁻¹.

B22: the Kd is 0.83 nM, the koff amounted to 0.00038 s⁻¹ and the kon was 460000 M⁻¹ s⁻¹.

For B23, the Kd was 3.1 nM, the koff came to 0.0013 s⁻¹ and the kon was determined as 420000 M⁻¹ s⁻¹.

Another assay concerns the target T1, Avi/His-HuIL18BPa (recombinant human …). Nature of the assay: SPR Biacore T200, IgG captured on Protein A/G.
As for B14, the Kd amounted to 20 nM, the koff was 0.0074 s⁻¹ and the kon was 370000 M⁻¹ s⁻¹.

As to B21, the Kd amounted to 16 nM, the koff was 0.0047 s⁻¹ and the kon was found to be 290000 M⁻¹ s⁻¹.

Take B22: the Kd worked out at 0.67 nM, the koff worked out at 0.00034 s⁻¹ and the kon is 510000 M⁻¹ s⁻¹.

Take B23: the dissociation constant (Kd) is 1.9 nM, the koff is 0.00091 s⁻¹ and the kon was found to be 470000 M⁻¹ s⁻¹.

Source of the values: US20250333523A1 (Alector, published 2025).
